Laboratory results: article PMC8510580, “HspB8 prevents aberrant phase transitions of FUS by chaperoning its folded RNA-binding domain” (eLife, 2021)
Positions count from the first letter of the chain named. In names and notes the source's numbering stands.

B1: FUS-G156E-GFP (FUSm) (natural protein, human, UniProt P35637 1-526, looked up)
chain: MASNDYTQQATQSYGAYPTQPGQGYSQQSSQPYGQQSYSGYSQSTDTSGYGQSSYSSYGQSQNTGYGTQSTPQGYGSTGGYGSSQSSQSSYGQQSSYPGYGQQPAPSSTSGSYGSSSQSSSYGQPQSGSYSQQPSYGGQQQSYGQQQSYNPPQGYEQQNQYNSSSGGGGGGGGGGNYGQDQSSMSSGGGSGGGYGNQDQSGGGGSGGYGQQDRGGRGRGGSGGGGGGGGGGYNRSSGGYEPRGRGGGRGGRGGMGGSDRGGFNKFGGPRDQGSRHDSEQDNSDNNTIFVQGLGENVTIESVADYFKQIGIIKTNKKTGQPMINLYTDRETGKLKGEATVSFDDPPSAKAAIDWFDGKEFSGNPIKVSFATRRADFNRGGGNGRGGRGRGGPMGRGGYGGGGSGGGGRGGFPSGGGGGGGQQRAGDWKCPNPTCENMNFSWRNECNQCKAPKPDGPGGGPGGSHMGGNYGDDRRGGRGGYDRGGYRGRGGDRGGFRGGRGGGDRGGFGPGKMDSRGEHRQDRRERPY
notes: FUS (fused in sarcoma), human, UniProt P35637, with G156E; also called FUSm-GFP; source: Sf9 cells, purified as described (Patel et al., 2015); not shown: 5 AA tag used for purification, N-terminal, kept; GFP, C-terminal, kept
B2: HspB8-WT (natural protein, UniProt Q9UJY1 1-196, looked up)
chain: MADGQMPFSCHYPSRLRRDPFRDSPLSSRLLDDGFGMDPFPDDLTASWPDWALPRLSSAWPGTLRSGMVPRGPTATARFGVPAEGRTPPPFPGEPWKVCVNVHSFKPEELMVKTKDGYVEVSGKHEEKQQEGGIVSKNFTKKIQLPAEVDPVTVFASLSPEGLLIIEAPQVPPYSTFGESSFNNELPQDSQEVTCT
notes: small heat shock protein HspB8; IDR printed as AA1-71 and alpha-crystallin domain as AA72-196; The article's keywords name Human as organism; also called small heat shock protein HspB8; source: E. coli BL21 Codon RIL, purified (GST, PreScission cleavage, reverse GST, ResourceQ); not shown: GST, N-terminal, cleaved
B3: HspB8-K141E (natural protein, UniProt Q9UJY1 1-196, looked up)
chain: B2 chain with K141E
notes: small heat shock protein HspB8 with the Charcot-Marie Tooth disease-associated mutation K141E in the alpha-crystallin domain; Same construct as m2 with K141E; also called K141E mutant; HspB8-K141E mutant; source: E. coli BL21 Codon RIL, purified (GST, PreScission cleavage, reverse GST, ResourceQ); not shown: GST, N-terminal, cleaved

Key:
Taf-15 = target: T1, Taf-15 (UniProt Q92804 1-592); test: MST; 33 nM FUSm, partner titrated; non-phase separating conditions (500 mM KCl); conditions: both partners purified
T1 construct: stress granule protein Taf-15; no methods for its production; also called stress granule protein Taf-15
T1 sequence (Q92804 whole entry): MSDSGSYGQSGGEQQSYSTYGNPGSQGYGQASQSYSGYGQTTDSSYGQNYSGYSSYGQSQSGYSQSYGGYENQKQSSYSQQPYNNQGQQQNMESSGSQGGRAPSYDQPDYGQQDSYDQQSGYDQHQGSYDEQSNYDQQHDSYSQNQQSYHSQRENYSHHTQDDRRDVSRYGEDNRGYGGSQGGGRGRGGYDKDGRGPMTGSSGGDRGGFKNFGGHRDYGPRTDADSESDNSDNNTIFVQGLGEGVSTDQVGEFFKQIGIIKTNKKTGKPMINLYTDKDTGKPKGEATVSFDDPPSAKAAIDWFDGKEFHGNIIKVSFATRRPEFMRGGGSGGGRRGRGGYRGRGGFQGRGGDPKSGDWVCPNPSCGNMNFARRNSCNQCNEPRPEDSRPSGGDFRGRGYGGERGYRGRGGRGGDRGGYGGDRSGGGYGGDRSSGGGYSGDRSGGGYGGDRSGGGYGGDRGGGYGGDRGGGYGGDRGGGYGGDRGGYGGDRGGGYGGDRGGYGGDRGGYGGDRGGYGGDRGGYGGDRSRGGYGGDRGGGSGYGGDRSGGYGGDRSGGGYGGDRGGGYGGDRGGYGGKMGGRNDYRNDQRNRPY

[1] = target: the molecule itself; test: cross-linking; quantitative XL-MS of FUSm alone: low salt (75 mM KCl, condensates) against high salt (500 mM KCl, no phase separation); 1.9 mM H12/D12 DSS, 30 min, 37°C
FUS-G156E-GFP (FUSm) = target: B1; test: cross-linking; XL-MS of FUSm (or FUSm_K9) mixed with the partner under condensate-inducing low salt (75 mM): low-salt mixture or dense phase separated by centrifugation; H12/D12 DSS, 30 min, 37°C; also 3 hr after formation and with an RNA oligonucleotide; conditions: both partners purified

Binder | Kd (Taf-15) [nM] | binding result [1] | binding result (FUS-G156E-GFP (FUSm))
B1 | 260 | binds | –
B2 | – | – | binds
B3 | – | – | binds
